Assay [1] deals with T1, PLS2 RD-ABD1 (a.a. 1–385) (human, UniProt P13796 1-385).
T1 chain: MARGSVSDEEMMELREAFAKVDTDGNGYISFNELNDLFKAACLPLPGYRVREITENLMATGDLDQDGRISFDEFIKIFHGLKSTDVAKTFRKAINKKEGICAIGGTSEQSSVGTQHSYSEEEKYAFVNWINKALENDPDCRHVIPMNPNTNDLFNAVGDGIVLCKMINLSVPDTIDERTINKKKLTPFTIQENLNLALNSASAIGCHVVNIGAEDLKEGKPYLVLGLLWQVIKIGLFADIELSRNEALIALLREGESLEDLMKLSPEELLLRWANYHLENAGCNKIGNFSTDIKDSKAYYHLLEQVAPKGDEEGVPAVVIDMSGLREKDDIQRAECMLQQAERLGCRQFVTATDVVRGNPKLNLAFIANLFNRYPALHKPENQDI
As to the kind of experiment: FP; pH 8.0.

Assay [2] concerns the target T1, PLS2 RD-ABD1 (a.a. 1–385). The experiment in a line: FP; pH 7.0.

B1: fluorescein-maleimide labeled PLS2 ABD2 (FM-ABD2) (domain or fragment)
chain: PENQDIDWGALEGETREERTFRNWMNSLGVNPRVNHLYSDLSDALVIFQLYEKIKVPVDWNRVNKPPYPKLGGNMKKLENCNYAVELGKNQAKFSLVGIGGQDLNEGNRTLTLALIWQLMRRYTLNILEEIGGGQKVNDDIIVNWVNETLREAKKSSSISSFKDPKISTSLPVLDLIDAIQPGSINYDLLKTENLNDDEKLNNAKYAISMARKIGARVYALPEDLVEVNPKMVMTVFACLMGKGM
modifications: fluorescein maleimide (FM) label; labeled residue not stated
Usually Kd stands for a measure of binding affinity in units of concentration. In the case of B1, the Kd came to 8.7 nM in assay [1] and 4.5 nM in assay [2].
